Laboratory results from patent US20210381026A1.

Target: GFP [GFP: P42212]
Assay: sandwich cD-IPCR: GFP in buffer captured by anti-GFP pAb on plate, bound cDNA display quantified by qPCR (ΔCt)

cDNA display presenting anti-GFP VHH (LaG-16), sequence (VHH): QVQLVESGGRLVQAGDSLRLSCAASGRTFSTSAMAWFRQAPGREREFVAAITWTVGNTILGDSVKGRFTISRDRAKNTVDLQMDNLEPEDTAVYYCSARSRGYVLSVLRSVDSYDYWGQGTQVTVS

- lowest detected GFP concentration (sandwich cD-IPCR): 10 ng/mL
Substance: cDNA display presenting anti-GFP VHH (LaG-16)
